US20090203886A1 (OSAKA UNIVERSITY, published 2009)
Values joined by “and” are separate entries in the source; they are usually repeats but may differ in a detail not shown here. Identical values can stand only once.

What was measured:
[1] = biological target: T1, human CD20 antigen (human, UniProt P11836 1-297); assay: Scatchard analysis on Raji cells, FITC secondary antibody fluorescence (Example 2)
T1 construct: whole, on cells; also called CD20 on Raji cells; CD20/CHO cells
T1 sequence (looked up): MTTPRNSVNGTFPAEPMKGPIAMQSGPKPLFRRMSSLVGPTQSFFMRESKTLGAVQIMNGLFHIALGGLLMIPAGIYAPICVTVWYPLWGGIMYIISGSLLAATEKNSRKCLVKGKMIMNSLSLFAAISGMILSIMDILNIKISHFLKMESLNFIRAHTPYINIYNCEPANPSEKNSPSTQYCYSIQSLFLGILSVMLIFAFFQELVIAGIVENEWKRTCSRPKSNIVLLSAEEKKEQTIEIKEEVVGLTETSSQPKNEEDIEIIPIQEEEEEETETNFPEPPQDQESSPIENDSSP
Protocol: The mixture was shaken for one hour at room temperature while shielding against light and primary antibodies binding to cells were detected. After the reaction, the mixture was centrifuged at 3,000 rpm for three minutes and the cells were recovered. The cells were suspended in 200 μl of PBS to remove unreacted FITC-labeled anti murine IgG (H&L) antibody remaining on the cell surface and then centrifuged at 3,000 rpm for three minutes to remove the supernatant. This operation was repeated twice.
After the detection step, the image was digitized using image analysis software Image Quant (Amersham Bioscience) and analyzed using Excel (Microsoft). Background values for the plate, the PBS solution and FITC-labeled secondary antibody displaying non-specific binding to cells were determined. Then a value for the reaction only between the cells and the FITC-labeled secondary antibodies was obtained. Average values for those four points were subtracted from the fluorescent intensity value for each sample in order to obtain the amount of fluorescence of cell-conjugated FITC-labeled secondary antibody. A standard curve was prepared by measuring the amount of fluorescence at various concentrations of control cell-conjugated FITC-labeled secondary antibodies. Thus the amount of cell-conjugated secondary antibody (number of moles or weight) was calculated. The amount of cell-conjugated primary antibody was calculated assuming that each primary antibody and the FITC-labeled secondary antibody react at a ratio of 1:2. Primary antibody in suspension was calculated by subtracting the cell-conjugated amount from the added amount. When calculating the antibody concentration as a molar concentration, the molecular weight of the monoclonal was taken to be 150,000.
Scatchard analysis was used to calculate the antigen number and dissociation constant (Kd value) refer to Scatchard, G.; Ann. N.Y. Acad.

[2] = biological target: T1, human CD20 antigen; assay: cell-based or functional assay
[3] = biological target: T1, human CD20 antigen; assay: cell-based or functional assay; remark: listed apart in the source
[4] = biological target: T1, human CD20 antigen; assay: Scatchard analysis on Raji cells, FITC anti human Fc secondary (Example 3)
Protocol: (§1) The reaction solution was 1% BSA-PBS solution with a cell number of 5×10⁶ cells and was injected into a 1.5 ml tube to a final volume of 100 μl. Three samples for each test antibody were prepared and four tubes to which antibody was not added were prepared as samples for background calculations.
(§2) After the detecting step, an image was digitized using image analysis software Image Quant (Amersham Bioscience) and analyzed using Excel (Microsoft). Average values for the same test antibodies were calculated and the values for background calculation samples (when only reacting a cell with a FITC-labeled secondary antibody) were subtracted from the test antibody values. The background values derived for the FITC-labeled secondary antibody binding non-specifically to cells, the PBS solution and the plate are omitted. At the same time, a standard curve was prepared by measuring the amount of fluorescence of only FITC-labeled secondary antibodies at amounts of 0, 12.5, 25, 50, 75, 100, 125, and 150 ng per 100 μl. In this manner, the number of moles of secondary antibody binding to cells was calculated. Assuming that each primary antibody and the FITC-labeled secondary antibody react at a ratio of […], the amount of cell-bound primary antibody was calculated. Primary antibody in suspension was calculated by subtracting the bound amount from the added amount. Scatchard analysis was performed using these values in order to calculate a dissociation constant Kd.

[5] = biological target: T1, human CD20 antigen; assay: cell-based or functional assay; remark: listed apart in the source
[6] = biological target: T1, human CD20 antigen; assay: cell-based or functional assay; remark: listed apart in the source
[7] = biological target: T1, human CD20 antigen; assay: Scatchard analysis on Raji cells (Example 3), average over the clones of the construct
Protocol: as §1, §2

Row | Binder | Kd [1] [nM] | Capacity to Induce Apoptosis (Raji cells) [2] | Cell growth inhibiting test on Raji cells, Absorption (492 nm) [3] [absorbance 492 nm] | Kd [4] | CDC (10 ug/ml), RAJI [5] | CDC (10 ug/ml), RC-K8 [5] | CDC (10 ug/ml), SUDHL4 [5] | CDC (10 ug/ml), WIL2NS [5] | Apoptosis (5 ug/ml), DHL4 [6] | Apoptosis (5 ug/ml), RAJI [6] | Apoptosis (5 ug/ml), RCK8 [6] | Apoptosis (5 ug/ml), Wil2-NS [6] | Kd [7] [nM]
1 | 1K1422 murine anti CD20 monoclonal antibody (antibody, V domains shown, also called m1422) VH: QVQLQQPGAELVKPGASVKMSCRASGYTFTNYNMHWIKQTPGQGLEWIGAIYPGSGDTSYNRKFKGKATLTADTSSSTAYMQFSSLTSADSAVYYCARFTYYYGGTYGAMDYWGQGTSVTVSL VL: QIVLTQSPPIMSASLGEEITLTCSASSRVSYMLWYQQKSGTSPKLLIYSTSNLASGVPSRFSGSGSGTFYSLTISSVEAEDAADYYCHQWTSNPCTFGGGTKLEIK | 3.39 | 130 | 1.77 |  |  |  |  |  |  |  |  |  | 
2 | 1K0924 murine anti CD20 monoclonal antibody (antibody, mouse IgG2b, V domains shown, also called m0924) VH: QVQLQQPGAELVKPGASVKMSCKASGYTFTSYNIHWVKQTPGQGLEWIGAIYPGNGDTSYNQKFKGKATLTSDKSSSTAYMQLSSLTSEDSAVYYCARMSTMITGFDYWGQGTTLTVSS VL: QIVLSQSPAILSASPGEKVTMTCRASSSVSYMHWYQQRPGSSPKPWIYATSNLASGVPARFSGSGSGTSYYFTISRVEAEDAATYYCQQWNSNPPTHGGGTKLEIK | 1.35 | 60 |  |  |  |  |  |  |  |  |  |  | 
3 | 1K1402 murine anti CD20 monoclonal antibody (antibody, V domains shown, also called m1402) VH: QVQLQQPGAELVKPGASVKMSCKASGFTFTSYNMHWVKQTPGQGLEWIGGIYPGNGDTSYNQKFKGKATLTADKSSSTAYMQLSSLTSEDSAVYYCARFYYYGSMGAMDYWGQGTSVTVSS VL: QIVLSQSPAILSASPGEKVTMTCRASSSVSYMHWYQQKPGSSPKPWIYATSNLASGVPARFSGSGSGTSYSLTITRVEAEDAATYYCQQWTFNPPTFGAGTKLELK | 0.78 | 30 | 2.54 |  |  |  |  |  |  |  |  |  | 
4 | 1K1736 murine anti CD20 monoclonal antibody (antibody, V domains shown) VH: QVQLQQPGAELVKPGASVKMSCKASGYTFTTYNLHWVKQTPGQGLEWIGGIYPGNGDTSYNQKFKVKATLTADKSSNTAYMQLSSLTSEDSAVYYCARWIYYGNYEGTLDYWGQGTSVTVSS VL: QIVLSQSPAILSSSPGEKVTMTCRASSSVSYMLWYQQKPGSSPEPWIYATSNLASGVPARFSGGGSGTSYSLTISRVEAEDAATYYCQQWTFNPPTFGGGTKLEIK | 0.54 | 50 | 2.24 |  |  |  |  |  |  |  |  |  | 
5 | 1K1712 murine anti CD20 monoclonal antibody (antibody, V domains shown, also called m1712) VH: QVQLQQPGAELVKPGASVKMSCKASGFTFTSYNLHWVKQTPGQGLEWIGAIYPGSGDTSYNQQFKGKATLTADKSSNTAYMQLNSLTSEDSAVYCCARSAMISTGNWYFDYWGQGTTLTVSS VL: QIVLSQSPAILSASPGEKVTMTCRASSSVSYMDWYQQKPGSSPKPWIYATSNLASGVPARFSGSGSGTSYSLTISRVEAEDTATYYCQQWTFNPPTFGSGTKLEIK | 0.84 | 50 | 2.33 |  |  |  |  |  |  |  |  |  | 
6 | humanized 1K1791 antibody ff (FraL x FraH) (antibody, V domains shown, Kappa, gamma 1 construct; also called hz1791 ff; Ff019) VH: QIQLVQSGSELKKPGASVKVSCKASGYTFTNFGVNWVKQAPGKGLKWMGWINTYTGEPSYADDFKGRFAFSLDASASTAYLQISSLKAEDMATYFCTRRTNYYGTSYYYAMDYWGQGTTVTVSS VL: STVMTQSPSFLSASVGDRVTITCKASQSVSNDVAWYQQKPGQSPKVLIYFASNRYTGVPDRFSGSGYGTDFTLTISSLQAEDVAVYFCQQDYSSPLTFGAGTKLEIK |  |  |  | 8.5 nM and 7.81 nM | 98 relative, c2B8 = 100 | 530 relative, c2B8 = 100 | 121 relative, c2B8 = 100 | 203 relative, c2B8 = 100 | 96 relative, m2B8 = 100 | 84 relative, m2B8 = 100 | 47 relative, m2B8 = 100 | 49 relative, m2B8 = 100 | 8.15
7 | 1K1228 murine anti CD20 monoclonal antibody (antibody, mouse IgG1, V domains shown, also called m1228) VH: QVQLQQPGAELVKPGASVKVSCKASGFTFTSYNLHWVKQTPGQGLVWIGAIYPGNGDTSYNQKFRGKATLTADISSSTAYMQLSSLTSEDSAVYYCARYYYGYDAMDYWGQGTSVTVSS VL: EIILTQSPTTMAASPGEKITITCSASSSISSYYLRWYQQKPGFSPKVLIYRTSNLASGVPARFSGSGSGTSYSLTIGTMEAEDVATYYCQQGNTVPLTFGSGTKLEIK | 0.26 | 30 |  |  |  |  |  |  |  |  |  |  | 

Further lines, results first:

Row | Kd [1] [nM] | Capacity to Induce Apoptosis (Raji cells) [2] | Cell growth inhibiting test on Raji cells, Absorption (492 nm) [3] [absorbance 492 nm] | Kd [4] | CDC (10 ug/ml), RAJI [5] | CDC (10 ug/ml), RC-K8 [5] | CDC (10 ug/ml), SUDHL4 [5] | CDC (10 ug/ml), WIL2NS [5] | Apoptosis (5 ug/ml), DHL4 [6] | Apoptosis (5 ug/ml), RAJI [6] | Apoptosis (5 ug/ml), RCK8 [6] | Apoptosis (5 ug/ml), Wil2-NS [6] | Kd [7] [nM] | Binder
8 |  |  |  | 7.17 nM and 7.25 nM | 99 relative, c2B8 = 100 | 498 relative, c2B8 = 100 | 120 relative, c2B8 = 100 | 172 relative, c2B8 = 100 | 65 relative, m2B8 = 100 | 88 relative, m2B8 = 100 | 50 relative, m2B8 = 100 | 49 relative, m2B8 = 100 | 7.21 | humanized 1K1791 antibody fv (FraL x VenH) (antibody, V domains shown, Kappa, gamma 1 construct; also called hz1791 fv; Fv010) VH: QIQLVQSGPELKKPGASVKISCKASGYTFTNFGVNWVKQAPGKGLKWMGWINTYTGEPSYADDFKGRFAFSLDASVSTAYLQISSLKAEDTSTYFCTRRTNYYGTSYYYAMDYWGQGTTVTVSS VL: STVMTQSPSFLSASVGDRVTITCKASQSVSNDVAWYQQKPGQSPKVLIYFASNRYTGVPDRFSGSGYGTDFTLTISSLQAEDVAVYFCQQDYSSPLTFGAGTKLEIK
9 |  |  |  | 11.6 nM and 13.8 nM | 78 relative, c2B8 = 100 | 713 relative, c2B8 = 100 | 111 relative, c2B8 = 100 | 295 relative, c2B8 = 100 | 143 relative, m2B8 = 100 | 205 relative, m2B8 = 100 | 93 relative, m2B8 = 100 | 100 relative, m2B8 = 100 | 12.7 | humanized 1K1791 antibody sf (SdrL x FraH) (antibody, V domains shown, Kappa, gamma 1 construct; also called hz1791 sf; Sf043) VH: QIQLVQSGSELKKPGASVKVSCKASGYTFTNFGVNWVKQAPGKGLKWMGWINTYTGEPSYADDFKGRFAFSLDASASTAYLQISSLKAEDMATYFCTRRTNYYGTSYYYAMDYWGQGTTVTVSS VL: STVMTQSPDSLAVSLGERATINCKSSQSNSNDVAWYQQKPGQSPKVLIYFASNRYSGVPDRFSGSGYGTDFTLTISSLQAEDVAVYFCQQDYSSPLTFGAGTKLEIK
10 |  |  |  | 24.4 nM and 21.8 nM | 73 relative, c2B8 = 100 | 108 relative, c2B8 = 100 | 61 relative, c2B8 = 100 | 120 relative, c2B8 = 100 | 133 relative, m2B8 = 100 | 202 relative, m2B8 = 100 | 92 relative, m2B8 = 100 | 108 relative, m2B8 = 100 | 23.1 | humanized 1K1791 antibody ss (SdrL x SdrH) (antibody, V domains shown, Kappa, gamma 1 construct; also called hz1791 ss; Ss020) VH: QIQLVQSGSELKKPGASVKVSCKASGYTFTNFGVNWVRQAPGKGLKWMGWINTYTGEPSYAQGFTGRFAFSLDASVSTAYLQISSLKAEDTATYFCTRRTNYYGTSYYYAMDYWGQGTTVTVSS VL: STVMTQSPDSLAVSLGERATINCKSSQSNSNDVAWYQQKPGQSPKVLIYFASNRYSGVPDRFSGSGYGTDFTLTISSLQAEDVAVYFCQQDYSSPLTFGAGTKLEIK
